Measurements reported in publication PMC12162846, “Tripartite motif-containing protein 26 promotes colorectal cancer growth by inactivating p53” (Cell Death and Differentiation, 2025).

Molecular target: T1, His-p53 (UniProt P04637 1-393)
T1 construct: p53; also called Purified p53; source: purified
Experiment: pull-down; GST-TRIM26 fragments on beads, incubated with His-p53 or His-MDM2 at RT for 40 min; bound protein detected by Western blot with His antibody
Conditions: both partners purified

T1 sequence (P04637 whole entry): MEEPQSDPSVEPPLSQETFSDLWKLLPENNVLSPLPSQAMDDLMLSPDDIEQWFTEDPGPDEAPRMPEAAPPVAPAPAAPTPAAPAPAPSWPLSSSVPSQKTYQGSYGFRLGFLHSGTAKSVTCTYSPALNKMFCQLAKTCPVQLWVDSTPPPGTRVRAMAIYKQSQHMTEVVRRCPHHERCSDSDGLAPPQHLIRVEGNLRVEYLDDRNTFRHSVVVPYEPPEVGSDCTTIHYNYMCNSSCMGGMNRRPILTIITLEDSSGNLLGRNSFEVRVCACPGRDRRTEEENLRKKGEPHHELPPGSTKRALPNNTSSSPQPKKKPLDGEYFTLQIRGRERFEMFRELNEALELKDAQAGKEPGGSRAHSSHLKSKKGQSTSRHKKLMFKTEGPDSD

binding result: binds
B1: GST-TRIM26 C-terminal PRYSPRY domain (aa301-539) (domain or fragment, UniProt Q12899 301-539, looked up)
chain: QGKLLRDLEYKTVSVTLDPQSASGYLQLSEDWKCVTYTSLYKSAYLHPQQFDCEPGVLGSKGFTWGKVYWEVEVEREGWSEDEEEGDEEEEGEEEEEEEEAGYGDGYDDWETDEDEESLGDEEEEEEEEEEEVLESCMVGVARDSVKRKGDLSLRPEDGVWALRLSSSGIWANTSPEAELFPALRPRRVGIALDYEGGTVTFTNAESQELIYTFTATFTRRLVPFLWLKWPGTRLLLRP
notes: also called the C-terminal domain of TRIM26; source: purified GST-fusion protein on beads
